In patent US20080219947A1:

How the values were obtained:
[1] = molecular target: epitope-tagged K^b (K^bR48Q.R50P), unattached (murine) (UniProt P01901); assay: flow cytometry on LM1.8 transfectants
[2] = molecular target: β2-microglobulin(L20).etK^b single chain dimer (murine) (UniProt P01887); assay: flow cytometry on LM1.8 transfectants
[3] = molecular target: MCMV.β2m^b.L^d single chain trimer (murine) (UniProt P01887); assay: flow cytometry on DLD-1 transfectants, 64-3-7 against 30-5-7 staining
[4] = molecular target: β2m^b.L^d single chain dimer (murine) (UniProt P01887); assay: as above
[5] = molecular target: p29.β2m^b.L^d single chain trimer (murine) (UniProt P01887); assay: as above
[6] = molecular target: QL9.β2m^b.L^d single chain trimer (murine) (UniProt P01887); assay: as above

UniProt P01901, sequence (P01901 22-305, stated change not applied): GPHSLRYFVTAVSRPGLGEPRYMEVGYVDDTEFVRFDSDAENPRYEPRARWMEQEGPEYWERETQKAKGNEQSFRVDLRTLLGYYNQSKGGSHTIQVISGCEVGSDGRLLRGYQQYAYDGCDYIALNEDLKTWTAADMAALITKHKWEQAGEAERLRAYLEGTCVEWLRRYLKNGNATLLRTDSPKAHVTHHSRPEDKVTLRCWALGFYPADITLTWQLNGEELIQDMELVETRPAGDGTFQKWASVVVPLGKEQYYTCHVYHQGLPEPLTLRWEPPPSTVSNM

mAb 64-3-7 (antibody)
open conformers as a fraction of the sum of B8-24-3 and 64-3-7 fluorescence intensity [1]: > 10% | open conformers as a fraction of the sum of B8-24-3 and 64-3-7 fluorescence intensity [2]: > 10% | percent of surface molecules detected in an open conformation [3]: 22% | percent of surface molecules detected in an open conformation [4]: 39% | percent of surface molecules detected in an open conformation [5]: 8% | percent of surface molecules detected in an open conformation [6]: 22%
